These results are taken from patent publication US20220119522A1 (DENALI THERAPEUTICS, published 2022).

Where a chain is given by its changes, count along the chain named. No end group written: not given here.

To fix the notation:
T1: His-tagged human TREM2 ECD (human, UniProt Q9NZC2 19-172)
T1 construct: Biacore and HDX say only recombinant human TREM2 (ECD); also called recombinant human TREM2; hTREM2
T1 sequence: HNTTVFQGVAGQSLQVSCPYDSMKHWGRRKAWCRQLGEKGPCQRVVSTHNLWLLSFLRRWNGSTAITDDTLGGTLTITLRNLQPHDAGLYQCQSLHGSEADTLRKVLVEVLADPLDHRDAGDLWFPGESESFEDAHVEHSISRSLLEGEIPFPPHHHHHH

T2: human TREM2 on the cell surface (human, UniProt Q9NZC2 19-230)
T2 sequence: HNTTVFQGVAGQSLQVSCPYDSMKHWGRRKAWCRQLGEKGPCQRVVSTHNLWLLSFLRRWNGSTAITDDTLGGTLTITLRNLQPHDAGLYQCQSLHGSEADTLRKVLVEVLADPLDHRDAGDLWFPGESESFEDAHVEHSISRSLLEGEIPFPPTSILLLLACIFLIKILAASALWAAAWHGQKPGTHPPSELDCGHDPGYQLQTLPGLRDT

T3: human TREM2 full length stalk region peptide (aa 129-172) (human, biotinylated (site not stated))
T3 construct: also called Human TREM2 peptide (aa 129-172); full-length TREM2 stalk peptide
T3 peptide: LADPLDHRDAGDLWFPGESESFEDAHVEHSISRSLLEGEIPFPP

T4: human TREM2 truncated stalk peptide (aa 149-163) (human, also: biotinylated (site not given here))
T4 construct: also called Human TREM2 peptide (aa 149-163); truncated stalk peptide containing the ADAM10/17 cleavage site
T4 peptide: SFEDAHVEHSISRSL

T5: mouse TREM2 full length stalk region peptide (aa 131-169) (mouse, UniProt Q99NH8 131-169, biotinylated (site not stated))
T5 peptide (looked up): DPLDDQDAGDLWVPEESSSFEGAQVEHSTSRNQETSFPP

B1: CL0020188-1 (antibody, V domains shown)
VH: EVQLVESGGGLVQPGGSLRLSCAASGFTFTDFYMSWVRQAPGKGLEWVSVIRNKANGYTAGYNPSVKGRFTISRDNSKNTLYLQMNSLRAEDTAVYYCARLTYGFDYWGQGTLVTVSS
VL: DIVMTQTPLSLPVTPGEPASISCQSSKSLLHSNGKTYLNWYLQKPGQSPQLLIYWMSTRASGVPDRFSGSGSGTDFTLKISRVEAEDVGVYYCQQFLEYPFTFGQGTKVEIK
notes: also called Clone CL0020188-1
B2: CL0020188-5 (antibody, V domains shown)
VH: B1 VH with G57A
VL: B1 VL
notes: Humanized variant of CL0020188 (hVH NA/graft, hVL NG/graft); also called Clone CL0020188-5
B3: CL0020188-6 (antibody, V domains shown)
VH: B1 VH with A24G, L45P, V48L, G57A
VL: B1 VL
notes: Humanized variant of CL0020188 (hVH NA/3 m, hVL NG/graft); also called Clone CL0020188-6
B4: CL0020188-8 (antibody, V domains shown)
VH: B1 VH with A24G, L45P, V48L, G57A
VL: B1 VL with N33T
notes: Humanized variant of CL0020188 (hVH NA/3 m, hVL TG/graft); also called Clone CL0020188-8
B5: CL0020188-3 (antibody, V domains shown)
VH: B1 VH
VL: B1 VL with N33T
notes: Humanized variant of CL0020188 (hVH NG/graft, hVL TG/graft); also called Clone CL0020188-3
B6: CL0020188-2 (antibody, V domains shown)
VH: B1 VH with A24G, L45P, V48L
VL: B1 VL
notes: Humanized variant of CL0020188 (hVH NG/3 m, hVL NG/graft); also called Clone CL0020188-2
B7: CL0020123-1 (antibody, V domains shown)
VH: QVQLVQSGAEVKKPGASVKVSCKASGFSIEDFYIHWVRQAPGQGLEWMGWIDPENGDSKYAPKFQGRATITADTSTSTAYMELSSLRSEDTAVYYCHADHGNYGSTMDYWGQGTLVTVSS
VL: DIQMTQSPSSLSASVGDRVTITCHASQHINVWLSWYQQKPGKAPKLLIYKASNLHTGVPSRFSGSGSGTDFTLTISSLQPEDFATYYCQQGQTYPRTFGQGTKVEIK
notes: Humanized variant of CL0020123 (hVH NGDS/2 m, Vk graft); also called Clone CL0020123-1
B8: CL0020123-8 (antibody, V domains shown)
VH: B7 VH with N55Q, D57E, A68V
VL: B7 VL
notes: Humanized variant of CL0020123 (hVH QGES/1 m, Vk graft); also called Clone CL0020123-8
B9: CL0020123-4 (antibody, V domains shown)
VH: B7 VH with D57E
VL: B7 VL
notes: Humanized variant of CL0020123 (hVH NGES/2 m, Vk graft); also called Clone CL0020123-4
B10: CL0020123-6 (antibody, V domains shown)
VH: B7 VH with N55Q, A68V
VL: B7 VL
notes: Humanized variant of CL0020123 (hVH QGDS/1 m, Vk graft); also called Clone CL0020123-6
B11: CL0020123-2 (antibody, V domains shown)
VH: B7 VH with A68V
VL: B7 VL
notes: Humanized variant of CL0020123 (hVH NGDS/1 m, Vk graft); also called Clone CL0020123-2
B12: CL0020123-3 (antibody, V domains shown)
VH: B7 VH with N55Q
VL: B7 VL
notes: Humanized variant of CL0020123 (hVH QGDS/2 m, Vk graft); also called Clone CL0020123-3
B13: CL0020308 (antibody, V domains shown)
VH: QVQLKQSGPSLVQPSQSLSITCTVSGFSLTTYGIHWVRQSPGKGLEWLGVIWTGGSTAFNAAFMSRLSITKDNSKSQVFFKMNSLQADDTAIYYCAKVGFHSATDYWGQGTSVTVSS
VL: DVLMTQTPLSLPVTLGDQASISCRSSQNLVHSNGNTYLEWYLQKPGQSPKLLIYKVSNRFSGVPDRFSGSGSGTDFTLKISRVEAEDLGLYYCFQGSHVPFTFGSGTKLEIK
notes: also called Clone CL0020308
B14: CL0020309 (antibody, V domains shown)
VH: B13 VH with T31S, I34V, H35Q, S56T, A58D, M64K, T90S, V98I, T104V
VL: B13 VL with T14S, L29I, S81N, V99I, K108Q
notes: also called Clone CL0020309
B15: CL0020201 (antibody, V domains shown)
VH: EVQLQQSGPVLVKPGASVRMSCKPSGYTFTDYYMNWVKQSHGKSLEWIGSINPYTGGSSYNQNFRGKATLTVDKSSSTAYMELNSLTSEDSAVYYCARGSYYSNLGFAYWGQGTLVTVSA
VL: DVQLTQSPSFLTASPGETITINCRASKSISKYLAWYQEKPGKTNKLLISSGSTLQSGIPSRFSGSGSGTDFTLTISSLEPEDFAMYYCQQYSEYPFTFGSGTKLEIK
notes: also called Clone CL0020201

The target in one assay is T1, His-tagged human TREM2 ECD. As to the kind of experiment: SPR (Biacore). As for the experimental part:
(§1) Surface plasmon resonance (Biacore™ 8K instrument) was used to measure anti-TREM2 antibody affinities for human and cynomolgus TREM2 ECD. Anti-TREM2 antibodies were captured using Human Fab Capture Kit (GE Healthcare Life Sciences, Catalog No. 28958325) on a Biacore Series S CM5 sensor chip (GE Healthcare Life Sciences, Catalog No. 29149604). Serial 3-fold dilutions of recombinant human or cynomolgus TREM2 were injected at a flow rate of 30 μL/min. Antibody binding was monitored for 300 seconds, followed by monitoring of antibody dissociation for 600+seconds in HBS-EP+ running buffer (GE Healthcare Life Sciences, Catalog No. BR100669). The binding response was corrected by subtracting the RU value from a blank flow cell. A 1:1 Languir model of simultaneous fitting of kₒₙ and koff was used for kinetics analysis.
(§2) Sequence optimization was conducted by searching within CDR sequences for residues that are susceptible to chemical modification (e.g., asparagine deamidation motifs (NG), aspartic acid isomerization motifs (DS), and potential oxidation residues (tryptophan (W) and methionine (M)) and making amino acid substitutions with conservative and germline residues to remove such sequence liabilities. Humanized and sequence-optimized variants of anti-TREM2 antibodies were then analyzed for binding kinetics using Biacore and dose-titrated cell binding to HEK293-H6 cells (see, Example 1 for representative protocols).
Take B1: the equilibrium dissociation constant (Kd) (in general, the equilibrium constant for the complex coming apart) was determined as 2.3 nM.
In turn, B2 gave a Kd of 5.1 nM.
The same measure, in the same setting: the value for B3 was 4 nM; that for B4 was 7.3 nM; that for B5 was 6.8 nM.
Same read-out and setting: the value for B6 was 3.4 nM; that for B7 was 0.14 nM.
On the same count and under the same terms, next, B8: 0.39 nM; B9: 0.17 nM.
In the case of B10, the Kd was found to be 0.32 nM.
In the case of B11, binding was characterised by a dissociation constant (Kd) of 0.18 nM.
On the same count and under the same terms, the value for B12 was 0.4 nM.

The next assay deals with T2, human TREM2 on the cell surface. As to the kind of experiment: cell-based or functional assay.
As for B13, the “NFAT EC50 (nM), plate coated mAb” value came to 51.9 nM; the “Survival EC50 (nM), plate coated mAb, human macrophages” value (from here on “Survival EC50 (nM), plate coated mAb”) was 8.9 nM; the “pSyk activation (HEK293-H6) EC50 (nM)” value was 33.4 nM.
For B14, the “Survival EC50 (nM), plate coated mAb” value turned out to be 2.69 nM and the “pSyk activation (HEK293-H6) EC50 (nM)” value is 40.6 nM.
In the case of B15, the “NFAT EC50 (nM), plate coated mAb” value is 81.7 nM; the “Survival EC50 (nM), plate coated mAb” value stood at 6.6 nM; the “pSyk activation (human macrophages) EC50 (nM)” value is 9.5 nM.

The target is the same in a further assay. The experiment in a line: cell binding, human macrophages, dose titration.
For B13, the EC50 (as a rule, the concentration needed to bring the measured effect to its halfway point) amounted to 0.6 nM.
The molecule B14 had an EC50 of 0.7 nM.

For a further assay the target is unchanged. The experiment in a line: flow cytometry, dose-titrated binding to HEK293-H6 cells. As for the experimental part:
After incubation, the cells were centrifuged and washed in FACS buffer (PBS+0.5% BSA) twice. Mixed cells were resuspended in FACS buffer with human Trustain FcX solution (Biolegend, Catalog No. 422302) at a density of 10⁶/mL per cell line. The mixed cell lines were seeded at 200,000 cells per well in a 96-well round-bottom plate and incubated for 20 minutes at room temperature. After incubation, the cells were centrifuged and incubated with anti-TREM2 antibodies of about 0-200 nM dose titration for 45 minutes on ice. After incubation, the cells were centrifuged and washed with FACS buffer three times. […] After incubation, the cells were washed with FACS buffer three times, resuspended in 100 μL of FACS buffer, and analyzed by flow cytometry (BD FACSCanto II, San Jose, Calif.), for which 30,000 events were obtained for each sample. Mean fluorescence intensity per cells were calculated by FlowJo software and used for generating dose response binding curve.
as §2
On the technique in general: Flow cytometry measures light scatter and fluorescence of single cells or particles in a stream.
As to B1, it took 0.42 nM to reach a half-maximal effect (EC50).
On the same count and under the same terms, next, B2: 0.45 nM.
Same read-out and setting: next, B3: 0.31 nM.
Still for that read-out and setting: next, B4: 0.51 nM.
B5 showed an EC50 of 0.64 nM.
On the same count and under the same terms, next, B6: 0.26 nM; B7: 0.25 nM.
On to B8, for which the midpoint of the response, the EC50, lay at 0.38 nM.
Molecule B9 displayed an EC50 of 0.17 nM.
The molecule B10 had a half-maximal effective concentration (EC50) of 0.29 nM.
On to B11, for which the EC50 stood at 0.23 nM.
On the same count and under the same terms, next, B12: 0.24 nM.

Another assay addresses T3, human TREM2 full length stalk region …. As to the kind of experiment: ELISA on biotinylated peptide captured by streptavidin; A450 normalised to isotype control. As for the experimental part:
(§3) TREM2 antibodies were evaluated for binding to human and mouse TREM2 stalk region peptides. […] Antibody binding to TREM2 stalk peptides was detected using standard sandwich ELISA. Briefly, a 96-well half-area ELISA plate was coated with streptavidin overnight at 4° C. The following day, biotinylated TREM2 stalk peptides diluted in 1% BSA/PBS were added to the plate and incubated for 1 hour. Antibodies diluted in 1% BSA/PBS were then added and incubated for 1 hour. Antibodies bound to peptide were detected with anti-human kappa-HRP secondary antibody (Bethyl Laboratories, Inc.) diluted in 1% BSA/PBS. Plates were assayed by reaction with a detection reagent (One-step TMB Ultra, Thermo) and measurement of absorbance at 450 nm (A450) by standard spectrophotometry instrumentation (BioTek®). Data are shown as normalized values (fold over background where background=isotype control).
Take B13: the “fold over background (A450)” value stood at 11 fold.
Regarding B14, the “fold over background (A450)” value is 11 fold.
In the case of B15, the “fold over background (A450)” value was 14 fold.

For a further assay, the target named is T4, human TREM2 truncated stalk peptide (aa …). The description is as above. As for the experimental part:
as §3
As to B15, the “fold over background (A450)” value stood at 1.7 fold.

The next assay concerns the target T5, mouse TREM2 full length stalk region …. Described as above. As to the method: as §3
Take B13: the “fold over background (A450)” value was 7.9 fold.
Turning to B14, the “fold over background (A450)” value amounted to 6.6 fold.
On the same count and under the same terms, the value for B15 was 5.4 fold.

In the next assay the target is T1, His-tagged human TREM2 ECD. As to the kind of experiment: SPR (Biacore), antibody captured via anti-human Fab, recombinant TREM2 ECD injected, 1:1 fit. As for the experimental part:
as §1
A general note: In SPR one partner is held on a chip, and binding of the other changes the refractive index at the surface.
In the case of B13, the Kd came out at 2.31 nM.
As to B14, the Kd was determined as 5.31 nM.
Still for that read-out and setting: the value for B15 was 0.54 nM.

In a further assay the target is T6, recombinant cynomolgus TREM2 ECD (cynomolgus).
T6 construct: extracellular domain; also called cyno TREM2
The description is as above. As for the experimental part:
as §1
In the case of B13, the Kd turned out to be 2.28 nM.
Still for that read-out and setting: next, B14: 5.33 nM; B15: 13.4 nM.
